The values below come from patent publication US20230054860.

The target of this data set is WDR26 (endogenous) (UniProt Q9H7D7).
Sequence of UniProt Q9H7D7 (Q9H7D7 whole entry): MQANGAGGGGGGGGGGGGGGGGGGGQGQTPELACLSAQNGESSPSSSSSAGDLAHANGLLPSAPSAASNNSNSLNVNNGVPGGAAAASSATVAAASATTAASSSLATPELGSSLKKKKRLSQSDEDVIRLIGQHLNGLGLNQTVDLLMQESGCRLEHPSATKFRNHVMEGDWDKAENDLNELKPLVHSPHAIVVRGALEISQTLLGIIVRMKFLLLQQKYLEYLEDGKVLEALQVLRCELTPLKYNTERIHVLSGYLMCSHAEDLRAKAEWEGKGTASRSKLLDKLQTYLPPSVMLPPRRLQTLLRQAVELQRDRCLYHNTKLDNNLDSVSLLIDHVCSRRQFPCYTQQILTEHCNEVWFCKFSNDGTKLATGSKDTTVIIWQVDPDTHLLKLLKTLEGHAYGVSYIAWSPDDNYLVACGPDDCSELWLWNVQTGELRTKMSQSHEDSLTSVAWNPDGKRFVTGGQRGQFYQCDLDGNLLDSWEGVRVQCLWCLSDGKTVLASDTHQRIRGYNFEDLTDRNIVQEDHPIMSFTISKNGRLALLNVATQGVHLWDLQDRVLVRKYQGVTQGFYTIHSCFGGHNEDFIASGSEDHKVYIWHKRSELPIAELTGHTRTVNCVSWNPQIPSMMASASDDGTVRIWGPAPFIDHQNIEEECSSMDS

For the substance AKT (endogenous), the “AKT phosphorylation levels (pAKT S473, western blot)” value is “ultimately leading to a decrease in AKT phosphorylation levels”.
